# In paper PMC9733933:
# Target: SARS-CoV-2 nsp7-11 polyprotein (SARS-CoV-2)
# Assay: SEC-MALS
substance,measurement,value
SARS-CoV-2 nsp7-11 polyprotein (domain or fragment),stoichiometry N,2
